The text below walks through data of patent publication US20080146500A1, “Selective Vpac2 Receptor Peptide Agonists” (priority 2004, published 2008).

A short description of data set [1]: Rat serum stability at 37 C, remaining active peptide estimated by EC50,4C/EC50,37C in CHO-VPAC2 cAMP assay. The procedure: The rat serum is stored at 4° C. until use and is used within two weeks.
On Day 0, two 100 μL aliquots of 10 μM peptide in rat serum are prepared by adding 10 μL peptide stock to 90 μL rat serum for each aliquot. 250 kIU aprotinin/mL is added to one of these aliquots. The aliquot is stored with aprotinin at 4° C. The aliquot is stored without aprotinin at 37° C. The aliquots are incubated for […].
On Day 1, after incubation of the aliquots prepared on day 0 for 24 hours, an incubation buffer containing PBS+1.3 mM CaCl2, 1.2 mM MgCl2, 2 mM glucose, and 0.25 mM IBMX is prepared. A plate with 11 serial 5× dilutions of peptide for the 4° C. and 37° C. aliquot is prepared for each peptide studied. […] The plate(s) are washed with cells twice in incubation buffer. The plates are allowed to hold 50 μL incubation media per well for 15 minutes. 50 μL solution per well is transferred to the cells from the plate prepared with 11 serial 5× dilutions of peptide for the 4° C. and 37° C. aliquot for each peptide studied, using the maximal concentrations that are indicated by the primary screen, in duplicate. This step dilutes the peptide concentration by a factor of two. The cells are incubated at room temperature for 30 minutes. The supernatant is removed. 40 μL/well of the DiscoveRx antibody/extraction buffer is added. The cells are incubated on the shaker (300 rpm) for 1 hour. Normal procedure with the DiscoveRx kit is followed. cAMP standards are included in column 12. EC50 values are determined from the cAMP assay data.

The target in data set [2] is T1, human VPAC2 (Homo sapiens, UniProt P41587).
T1 construct: expressed in transfected cells
T1 sequence (P41587 24-438): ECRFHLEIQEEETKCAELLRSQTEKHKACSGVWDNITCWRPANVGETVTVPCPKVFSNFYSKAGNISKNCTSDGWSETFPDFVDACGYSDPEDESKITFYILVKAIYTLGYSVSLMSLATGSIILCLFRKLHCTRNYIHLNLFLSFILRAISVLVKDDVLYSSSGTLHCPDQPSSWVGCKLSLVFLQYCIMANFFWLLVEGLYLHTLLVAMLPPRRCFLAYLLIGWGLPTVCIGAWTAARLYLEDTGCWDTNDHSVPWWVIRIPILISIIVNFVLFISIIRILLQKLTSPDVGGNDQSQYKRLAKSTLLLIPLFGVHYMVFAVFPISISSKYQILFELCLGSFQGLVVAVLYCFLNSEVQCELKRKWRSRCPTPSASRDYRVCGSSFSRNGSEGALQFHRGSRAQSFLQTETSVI
Kind of data set: Alpha screen in vitro potency: human VPAC2-R mediated cAMP generation. Particulars: single results or mean of two or more independent runs. It counts as cell-based.

For data set [3], the target named is T1, human VPAC2. Kind of data set: Filter binding assay, membranes from stable VPAC2 cell line, 125I-labeled VIP tracer. Particulars: read-out: Human receptor binding (IC50; nM) VPAC2. The procedure: (§1) For this assay, the solutions and equipment include:
(§2) Presoak solution: 0.5% Polyethyleneamine in Aqua dest.
(§3) Buffer for flushing filter plates: 25 mM HEPES pH 7.4
(§4) Blocking buffer: 25 mM HEPES pH 7.4; 0.2% protease free BSA
(§5) Assay buffer: 25 mM HEPES pH 7.4; 0.5% protease free BSA
(§6) Dilution and assay plate: PS-Microplate, U form
(§7) Filtration Plate Multiscreen FB Opaque Plate; […] Type B Glasfiber filter
(§8) In order to prepare the filter plates, the presoak solution is aspirated by vacuum filtration. The plates are flushed twice with 200 μL flush buffer. 200 μL blocking buffer is added to the filter plate. The filter plate is then incubated with 200 μL presoak solution for 1 hour at room temperature.
(§9) The assay plate is filled with […] (2.5 μg) suspended in assay buffer, 25 μL compound (agonist) in assay buffer, and 25 μL tracer (about 40000 cpm) in assay buffer. The filled plate is incubated for 1 hour with shaking.
(§10) The transfer from assay plate to filter plate is conducted. The blocking buffer is aspirated by vacuum filtration and washed two times with flush buffer. 90 μL is transferred from the assay plate to the filter plate. The 90 μL transferred from assay plate is aspirated and washed three times with 200 μL flush buffer. The plastic support is removed. It is dried for 1 hour at 60° C. 30 μL Microscint is added. The count is performed.
(§11) Values reported are single results or the mean of two or more independent runs.

For another data set, the target named is T2, human VPAC1 (Homo sapiens, UniProt P32241).
T2 construct: expressed in transfected cells
T2 sequence (P32241 31-457): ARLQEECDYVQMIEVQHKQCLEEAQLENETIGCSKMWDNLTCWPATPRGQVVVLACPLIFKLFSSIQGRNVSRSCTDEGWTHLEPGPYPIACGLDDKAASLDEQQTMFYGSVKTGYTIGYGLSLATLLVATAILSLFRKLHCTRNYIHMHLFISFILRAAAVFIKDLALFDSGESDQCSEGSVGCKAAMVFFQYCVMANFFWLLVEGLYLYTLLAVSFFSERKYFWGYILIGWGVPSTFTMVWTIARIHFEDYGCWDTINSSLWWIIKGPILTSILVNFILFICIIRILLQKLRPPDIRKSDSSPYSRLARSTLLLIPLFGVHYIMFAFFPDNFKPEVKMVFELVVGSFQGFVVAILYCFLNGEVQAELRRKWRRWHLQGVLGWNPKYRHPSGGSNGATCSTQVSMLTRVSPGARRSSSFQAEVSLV
Kind of data set: Filter binding assay, membranes from cells transiently transfected with human VPAC1, 125I-labeled VIP tracer. Conditions: read-out: Human receptor binding (IC50; nM) VPAC1. The procedure:
as §1, §2, §3, §4, §5, §6, §7, §8, §9, §10, §11

The nature of data set [4]: Pharmacokinetic profiles of PEGylated peptides, plasma peptide by RIA. Type of data set: in vivo, Fisher 344 rats. Particulars: rat, in vivo. How it is done:
Pharmacokinetic profiles of PEGylated peptides. Healthy Fisher 344 rats (3 animals per group) are injected with 100 μg compound/kg (compound amount based on peptide content and dissolved in PBS buffer). […] PK parameters are then calculated using a model-independent method (WinNonlin Pro, Pharsight Corp., Mountain View, Calif., USA).

In the next data set the target is T3, human PAC1 (Homo sapiens, UniProt P41586).
T3 construct: expressed in transfected cells
T3 sequence (P41586 21-468): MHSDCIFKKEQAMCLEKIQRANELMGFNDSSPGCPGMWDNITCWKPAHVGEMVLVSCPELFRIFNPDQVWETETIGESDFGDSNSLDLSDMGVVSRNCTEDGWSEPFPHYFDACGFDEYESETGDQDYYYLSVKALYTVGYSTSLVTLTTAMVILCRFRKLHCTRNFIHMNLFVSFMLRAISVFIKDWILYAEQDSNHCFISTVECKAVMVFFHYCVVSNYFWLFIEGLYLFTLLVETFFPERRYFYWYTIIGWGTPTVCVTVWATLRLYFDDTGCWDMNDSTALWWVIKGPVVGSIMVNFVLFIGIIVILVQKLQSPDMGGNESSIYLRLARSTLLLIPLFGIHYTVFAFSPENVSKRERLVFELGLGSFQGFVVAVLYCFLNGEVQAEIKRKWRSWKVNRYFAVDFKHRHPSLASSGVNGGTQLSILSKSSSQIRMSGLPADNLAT
As to the kind of experiment: Filter binding assay, membranes from cells transiently transfected with human PAC1, 125I-labeled PACAP-27 tracer. Particulars: read-out: Human receptor binding (IC50; nM) PAC1. How it is done: as §1, §2, §3, §4, §5, §6, §7, §8, §9, §10, §11

Another data set has as its target T4, rat VPAC2 receptor (Rattus norvegicus, UniProt P35000).
T4 construct: expressed in transfected cells; host or cells: CHO-PO cells, transient
T4 sequence (P35000 23-437): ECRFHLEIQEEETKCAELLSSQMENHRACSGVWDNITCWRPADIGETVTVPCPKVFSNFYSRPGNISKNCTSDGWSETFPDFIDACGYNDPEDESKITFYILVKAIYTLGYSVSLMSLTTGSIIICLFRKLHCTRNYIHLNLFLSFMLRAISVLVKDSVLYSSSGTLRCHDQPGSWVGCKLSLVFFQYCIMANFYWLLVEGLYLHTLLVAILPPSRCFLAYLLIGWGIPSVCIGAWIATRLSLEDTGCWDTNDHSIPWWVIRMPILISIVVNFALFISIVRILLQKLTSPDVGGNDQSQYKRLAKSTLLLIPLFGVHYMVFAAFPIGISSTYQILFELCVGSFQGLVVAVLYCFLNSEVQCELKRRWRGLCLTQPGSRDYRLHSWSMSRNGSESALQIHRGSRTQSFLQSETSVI
As to the kind of experiment: Rat VPAC2 in vitro potency (cAMP generation, DiscoveRx) in transiently transfected CHO-PO cells. Type of data set: cell-based. Conditions: CHO-PO cells transiently transfected with rat VPAC2; read-out: rVPAC2 in vitro potency (cAMP generation) EC50. How it is done: Rat receptor selectivity is estimated by comparing functional potency (cAMP generation) in CHO-PO cells transiently expressing rat VPAC1 or rat VPAC2 receptors. CHO-PO cells transiently expressing rat VPAC1 or VPAC2, are seeded with 10,000 cells/well three days before the assay. The cells are kept in 200 μL culture medium. […] The stimuli are present for 30 minutes. The assay buffer is then gently removed.

Read-outs that look alike come from different tables or passages of the source. Square brackets hold non-standard residues; d marks the D form. Ends that are not written are not given here. * marks the point of attachment. Hexanoyl = CCCCCC(=O)*; Aib = CC(C)(N)C(=O)O

Turning to “P247 (HSDAVFTDNYTRLRRQVAARKYLQSIRNGGPSSGAPPPS; not fully specified (residue 21, N-terminus)) [Compound P247]”, the “Estimated 72 h stability (%)” value in data set [1] is reported as 16.7%.
The term IC50 denotes the concentration that gives 50% inhibition. “P246 (Hexanoyl-HSDAVFTDNYTRLRRQVAAK(PEG 40 kDa)RYLQSIRNGGPSSGAPPPS) [Agonist P246]”: the EC50 with human VPAC2 [2] is 398 nM. Also, the IC50 with human VPAC2 [3] was > 1000 nM; with human VPAC1, > 25000 nM.
One may read the Tmax as the time at which the peak concentration occurs. For orientation: Vd/F means the apparent distribution volume after extravascular dosing. With “P217 (Hexanoyl-HSDAVFTDNYTRLRK(PEG 20 kDa)QVAAK(PEG 20 kDa)RYLQSIRNGGPSSGAPPPS) [Compound P217]”, in data set [4], the Cl/F worked out at 0.12 mL/min/kg, the Tmax was determined as 20 h, the T½ turned out to be 49 h and the Vd/F was determined as 0.421 L/kg.
Turning to “P245 (HSDAVFTDNYTRLRKQVAARRYLQSIRNGGPSSGAPPPS; not fully specified (residue 15, N-terminus)) [Agonist P245]”, in the data set with human VPAC2 [2], the EC50 stood at 450 nM. The IC50 with human VPAC2 [3] is 921 nM; in the data set with human VPAC1, > 25000 nM.
For the substance “P217 (Hexanoyl-HSDAVFTDNYTRLRK(PEG 20 kDa)QVAAK(PEG 20 kDa)RYLQSIRNGGPSSGAPPPS) [Agonist P217]”, the EC50 with human VPAC2 [2] is > 3000 nM.
In the case of “P219 (Hexanoyl-HSDAVFTDNYTRLRRQVAAK(PEG 20 kDa)RYLQSIRNGGPSSGAPPPS) [Agonist P219]”, the EC50 with human VPAC2 [2] stood at 25.5 nM. In addition, the half-inhibitory concentration (IC50) was 67.9 nM with human VPAC2 [3] and > 25000 nM with human VPAC1.
With “P300 (Hexanoyl-HSDAVFTDNYTRLR[Aib]QVAA[Aib]KYLQSIKNKRYGGPSSGAPPPC(PEG 40 kDa)-NH2) [Compound P300]”, in data set [4], the Cl/F turned out to be 1.2 mL/min/kg, the Tmax came to 10 h, the T½ worked out at 15 h and the Vd/F turned out to be 1.557 L/kg.
Regarding “P219 (Hexanoyl-HSDAVFTDNYTRLRRQVAAK(PEG 20 kDa)RYLQSIRNGGPSSGAPPPS) [Compound P219]”, in data set [1], the “Estimated 72 h stability (%)” value was 45.6%.
Take “P247 (HSDAVFTDNYTRLRRQVAARKYLQSIRNGGPSSGAPPPS; not fully specified (residue 21, N-terminus)) [Agonist P247]”: the EC50 with human VPAC2 [2] came out at 133 nM. Also, the values for the IC50 with human VPAC2 [3] and with human VPAC1 were 353 nM and > 25000 nM, respectively.
With “P300 (Hexanoyl-HSDAVFTDNYTRLR[Aib]QVAA[Aib]KYLQSIKNKRYGGPSSGAPPPC(PEG 40 kDa)-NH2) [Agonist P300]”, the EC50 with human VPAC2 [2] worked out at 6.62 nM; in the data set with rat VPAC2 receptor it was 5.8 nM. Besides, the IC50 is 1.76 nM in the data set with human VPAC2 [3], > 3000 nM in the data set with human VPAC1 and > 25000 nM with human PAC1.
Consider “C6-HSDAVFTDNYTRLRAibQVAAKAibYLQSIKNKRYGGPSSGAPPPC(PEG40K)-NH2 (Hexanoyl-HSDAVFTDNYTRLR[Aib]QVAAK[Aib]YLQSIKNKRYGGPSSGAPPPC(PEG 40 kDa)-NH2) [Agonist P286]”, for which, in the data set with human VPAC2 [2], the EC50 was 6.65 nM. For the same substance, the figures for the IC50 with human VPAC2 [3], with human VPAC1 and with human PAC1 were 0.46 nM, > 3000 nM and > 25000 nM, respectively. Further, the “Estimated 72 h stability (%)” value in data set [1] (after 72 h in rat serum at 37 C, values >100% may represent release of intact peptide from the PEG conjugate) is recorded as 60.5%.
